Data on 2 molecules can be found in US20220096654A1, “PYRROLOBENZODIAZEPINE-ANTIBODY CONJUGATES AND USES THEREOF” (ADC THERAPEUTICS SA, priority 2020, published 2022).

Test [1] deals with luciferase expressing human CD45+ Jurkat cells. As to the kind of experiment: Jurkat leukaemia model in NSG mice (bioluminescence, survival). To be noted: 1 mg/kg; for mice remained leukaemia free: day 16. The class given is in vivo. How it is done:
Adult NSG mice were sublethally irradiated with 2 Gy on the day before injection of cells. 5×10^6 fire fly luciferase expressing Jurkat cells in PBS were injected intravenously into the tail vein of mice. On the following day PBS, MAbs or ADC were injected intravenously into the tail vein at a dose of 1 mg/kg. Mice were regularly monitored for signs of morbidity and weight loss for the duration of the experiment. For imaging, mice were injected intraperitoneally with 3 mg D-luciferin in PBS. Mice were initially anesthetized with 4% isoflurane and then maintained at 2% isoflurane. Ten minutes after injection of D-luciferin, mice were imaged inside a IVIS Lumina III (PerkinElmer). A sub-saturating image was captured using the auto-exposure setting in the Living Image software.

Test [2] deals with human CD45+ cells. Briefly: Depletion of human CD45+ cells in humanised NSG mice. Type of test: in vivo. How it is done:
Adult female NSG mice were sublethally irradiated with 2.5 Gy on the day before transplantation (day −57). Cryopreserved purified CD34+ cells from mobilized peripheral blood from a normal donor were thawed and 0.5×10^6 cells in PBS were injected intravenously into the tail vein of mice (day −56). Human engraftment (human CD45+ cells) in the blood of mice was assessed at day −14 and day −1. Mice were assigned to treatment cohorts so that the median human CD45+ engraftment in the blood between the cohorts was as similar as possible. Mice were injected with 0.3 mg/kg or 1 mg/kg Mab or ADC intravenously via the tail vein. Blood samples were taken after 7 days and analysed by flow cytometry. The bone marrow, blood and spleen of mice were analysed at two weeks post-treatment.

The subject of test [3] is human CD45+ cells. Briefly: Allogeneic stem cell transplant model in humanized NSG mice, comparison of payloads. To be noted: 1 mg/kg; for mean % hCD45+ engraftment in the bone marrow: 8 weeks after allogeneic GFP+ cells, PBS 14.12%. Type of test: in vivo. How it is done:
Adult NSG mice (Charles River Laboratories) were sublethally irradiated with 2.5 Gy in a ^137Cs irradiator. On the following day, mice were injected with 0.5×10^6 freshly thawed cryopreserved human CD34+ cells from a health donor were injected via the tail vein in 150 μL PBS using a 29 gauge MicroFine Plus insulin syringe (BD). Engraftment of human cells in the blood was assessed periodically from 6 weeks after transplantation. At 10 weeks post-transplant, humanized NSG mice were assigned into cohorts with similar median human CD45+ cell engraftment in the blood, as determined by flow cytometry. Mice were injected with PBS or 1 mg/kg YTH24.5-B1. Sixteen 16 days after treatment, mice were transplanted with 0.5×10^6 GFP+CD34+ cells from another healthy donor. Irradiated NSG […] were also transplanted with the GFP+CD34+ from the allogeneic healthy donor as a control for engraftment of the GFP+CD34+ cells. 8 weeks after transplantation of GFP+ cells, mice were culled and blood, spleen and bone marrow taken for analysis by flow cytometry.
Experimental schedule is as previously described in example 16 but with the following modifications. Humanized NSG mice at 10 weeks post-transplant were injected with PBS or 1 mg/kg YTH24.5-B1, YTH54.12-B1, Isotype-B1, YTH24.5-B4 and Isotype-3376. Isotype-B2 and YTH24.5-B2 was given at a dose of 5 mg/kg. Transplantation of 0.5×10^6 GFP+CD34+ from an allogeneic human donor and analysis at 8 weeks post-transplant of GFP+ cells was carried out as previously described.

The test system of another test is OCIM1 (CD45+). Briefly: Cell viability assay 72 h (PrestoBlue), OCIM1. Type of test: cell-based, human. To be noted: drug-linker B1. As to the method: (§1) OCIM1, Jurkat and Nalm6 cells were seeded at 0.5×10^5/mL were cultured for 72 hours in presence of Mab or ADC or medium (in triplicate wells) in wells of flat bottom 96-well plates. 293T cells were seeded at 9.3×10^3 cells per well in flat bottom 96-well plates and allowed to adhere the plate for up to 24 hours. 293T cells were subsequently cultured with Mab or ADC or medium (in triplicate wells) for 72 hours. PrestoBlue® Cell viability Reagent (Thermo Fisher Scientific) was added to each and incubated for up to 1.5 hours. Fluorescence intensity from each well was detected using a FLUOstar OPTIMA microplate reader (BMG Labtech). Data points are mean±s.d. for representative experiments.

A further test deals with Nalm6 (CD45-). Briefly: Cell viability assay 5 days (PrestoBlue), Nalm6. Type of test: cell-based, human. The settings on record: rat IgG2b ADC, n=3. How it is done: (§2) OCIM1, Jurkat and Nalm6 cells were seeded at a final concentration of 1.275×10^4/mL and for 5 days in presence of rat IgG2b Mab or ADC or medium (in triplicate) in wells of flat bottom 96-well plates. 293T cells were seeded at 9.3×10^3 cells per 100 uL per well in flat bottom 96-well plates and allowed to adhere the plate for up to 24 hours. 293T cells were subsequently cultured with rat IgG2b Mabs or ADC or medium (in triplicate wells) as described above. PrestoBlue® Cell viability Reagent (Thermo Fisher Scientific) was added to each and incubated for up to 1.5 hours. Fluorescence intensity from each well was detected using a FLUOstar OPTIMA microplate reader (BMG Labtech). Data was plotted using Prism 8.0 and sigmoid dose-response non-linear regression was used to determine EC50 values. Data points are mean±s.d. for representative experiments.

Another test relates to human CD34+ cells. As to the kind of experiment: Ex vivo treatment of CD34+ cells with Mab or ADC prior to engraftment in NSG mice. To be noted: CD34+ cells treated at 1 nM and 0.1 nM for 4 hours before transplantation; week 8. As to the method: Adult female NSG mice were sublethally irradiated with 2.5 Gy on the day before transplantation. Cryopreserved purified CD34+ cells from mobilized peripheral blood from a normal donor were thawed and cultured in complete medium (RPMI 1640 plus 10% fetal calf serum) in presence of Mab, ADC or medium alone for 4 hours. Cells were washed in phosphate buffered saline (PBS) and 0.5×10^6 cells in PBS were injected intravenously into the tail vein of mice. Engraftment of transplanted human cells (hCD45+) in the bone marrow of mice was determined by flow cytometry at 8 weeks after transplantation.

The subject of the next test is Jurkat (CD45+). Briefly: Cell viability assay 72 h (PrestoBlue), Jurkat. The class given is cell-based, human. The settings on record: drug-linker B1. As to the method: as §1
In a further test the test system is 293T (CD45-). As to the kind of experiment: Cell viability assay 5 days (PrestoBlue), 293T. Type of test: cell-based, human. To be noted: rat IgG2b ADC, n=3. As to the method:
as §2

B1: YTH54.12-B1: rat IgG2b anti-CD45 antibody YTH54.12 conjugated to cleavable PBD drug-linker B1 (drawing 43) (conjugate)
heavy: EVQLVESGGGLVQPGGSMKLSCAASGFTFSDYYMAWVRQAPKKGLEWVASMSFAGSSTYYGDSVKGRFTISRDNAKTTLYLQMNSLRSEDTATYYCARMYTTDYYLYWYFDFWGPGTMVTVSSAQTTAPSVYPLAPGCGDTTSSTVTLGCLVKGYFPEPVTVTWNSGALSSDVHTFPAVLQSGLYTLTSSVTSSTWPSQTVTCNVAHPASSTKVDKKVERRNGGIGHKCPTCPTCHKCPVPELLGGPSVFIFPPKPKDILLISQNAKVTCVVVDVSEEEPDVQFSWFVNNVEVHTAQTQPREEQYNSTFRVVSALPIQHQDWMSGKEFKCKVNNKALPSPIEKTISKPKGLVRKPQVYVMGPPTEQLTEQTVSLTCLTSGFLPNDIGVEWTSNGHIEKNYKNTEPVMDSDGSFFMYSKLNVERSRWDSRAPFVCSVVHEGLHNHHVEKSISRPPGK
light: DVQMTQSPSYLAASPGESVSISCKASKSISNYLAWYQQKPGEANKILIYSGSTLQSGTPSRFSGSGSGTDFSLTIRNLEPEDFAVYYCQQYDEKPLTFGSGTKLEIKRADAAPTVSIFPPSMEQLTSGGATVVCFVNNFYPRDISVKWKIDGSEQRDGVLDSVTDQDSKDSTYSMSSTLSLTKVEYERHNLYTCEVVHKTSSSPVVKSFNRNEC
B1: in test [1], the “surviving mice at end of day 70” value is listed as “had surviving mice” and the “mice remained leukaemia free” value is given as 4 of 5. In the test on human CD45+ cells [2] (0.3 mg/kg i.v.), the “Mean % hCD45 levels in blood, 1 week post-treatment” value turned out to be 2.99% and the “Mean % hCD45 levels in blood, 2 weeks Post-treatment” value is reported as 1.31%. In addition, in the test with human CD45+ cells [2] (1 mg/kg i.v.), the “Mean % hCD45 levels in blood, 1 week post-treatment” value is reported as 0.75% and the “Mean % hCD45 levels in blood, 2 weeks Post-treatment” value was 0.38%. Further, in the test on human CD45+ cells [2] (group later dosed 0.3 mg/kg), the “Mean % hCD45 levels in blood, Pre-treatment” value worked out at 5.37%. In addition, in the test with human CD45+ cells [2] (group later dosed 1 mg/kg), the “Mean % hCD45 levels in blood, Pre-treatment” value was 6.14%. Besides, in the test on human CD45+ cells [3], the “percentage GFP+ human CD34+ cells in the bone marrow (mean)” value worked out at 69.40% and the “mean % hCD45+ engraftment in the bone marrow” value is on record as 16.34%. Also, in the test on OCIM1 (CD45+), the “EC50 values, viability assay, OCIM1 (CD45+)” value is on record as “low pM range”. In the test with Nalm6 (CD45-), the EC50 (usually the concentration giving half of the maximal effect) stood at 9.64 pM. Also, the “engraftment of human CD45+ cells in the bone marrow of NSG mice” value in the test with human CD34+ cells is listed as “prevented engraftment”. Moreover, the “EC50 values, viability assay, Jurkat (CD45+)” value in the test on Jurkat (CD45+) is given as “low pM range”. The molecule also displayed an EC50 in the test with 293T (CD45-) above 6000 pM.

B2: YTH24.5-B1: rat IgG2b anti-CD45 antibody YTH24.5 conjugated to cleavable PBD drug-linker B1 (drawing 43) (conjugate)
heavy: QVNLLQSGAALVKPGASVKLSCKASSYTFTDYYIHWVKQSHGKTLEWIGYINPKSGFTNYNEKFRRKATLTVDKSTNTAYMDISRLTSEDSATYYCTRRTGVIPMDAWGQGASVTVSSAQTTAPSVYPLAPGCGDTTSSTVTLGCLVKGYFPEPVTVTWNSGALSSDVHTFPAVLQSGLYTLTSSVTSSTWPSQTVTCNVAHPASSTKVDKKVERRNGGIGHKCPTCPTCHKCPVPELLGGPSVFIFPPKPKDILLISQNAKVTCVVVDVSEEEPDVQFSWFVNNVEVHTAQTQPREEQYNSTFRVVSALPIQHQDWMSGKEFKCKVNNKALPSPIEKTISKPKGLVRKPQVYVMGPPTEQLTEQTVSLTCLTSGFLPNDIGVEWTSNGHIEKNYKNTEPVMDSDGSFFMYSKLNVERSRWDSRAPFVCSVVHEGLHNHHVEKSISRPPGK
light: DVVMTQTPVSLSVSLGGQVSISCRSSQSFVSSDGNTYLNWYLQKPGQSPQLLIYKVSNRLSGVPDRFSGSGSGTDFTLKISRVEHDDLGVYYCGQASKIPLTFGSGTKLEIKRADAAPTVSIFPPSMEQLTSGGATVVCFVNNFYPRDISVKWKIDGSEQRDGVLDSVTDQDSKDSTYSMSSTLSLTKVEYERHNLYTCEVVHKTSSSPVVKSFNRNEC
Regarding B2, in test [1], the “surviving mice at end of day 70” value is reported as “had surviving mice” and the “mice remained leukaemia free” value is 5 of 5. In the test with human CD45+ cells [2] (0.3 mg/kg i.v.), the “Mean % hCD45 levels in blood, 1 week post-treatment” value worked out at 5.63% and the “Mean % hCD45 levels in blood, 2 weeks Post-treatment” value turned out to be 1.75%. In the test on human CD45+ cells [2] (0.3 mg/kg, two week period), the “course of the levels of human CD45+ cells in blood” value is given as “persistent loss”. In the test on human CD45+ cells [2] (1 mg/kg i.v.), the “Mean % hCD45 levels in blood, 1 week post-treatment” value is reported as 1.08% and the “Mean % hCD45 levels in blood, 2 weeks Post-treatment” value came out at 0.64%. Besides, the “Mean % hCD45 levels in blood, Pre-treatment” value in the test on human CD45+ cells [2] (group later dosed 0.3 mg/kg) is given as 8.89%. The “Mean % hCD45 levels in blood, Pre-treatment” value in the test with human CD45+ cells [2] (group later dosed 1 mg/kg) stood at 6.08%. In the test on human CD45+ cells [3], the “percentage GFP+ human CD34+ cells in the bone marrow (mean)” value was determined as 59.13% and the “mean % hCD45+ engraftment in the bone marrow” value is on record as 16.45%. The “EC50 values, viability assay, OCIM1 (CD45+)” value in the test on OCIM1 (CD45+) is on record as “low pM range”. The same molecule gave a concentration for a half-maximal effect (EC50) with Nalm6 (CD45-) of 9.34 pM. For the same molecule, the “engraftment of human CD45+ cells in the bone marrow of NSG mice” value in the test on human CD34+ cells is recorded as “prevented engraftment”. Besides, the “EC50 values, viability assay, Jurkat (CD45+)” value with Jurkat (CD45+) is reported as “low pM range”. The same molecule showed an EC50 with 293T (CD45-) above 6000 pM.
